Results: article PMC11574045, “A cofactor-induced repressive type of transcription factor condensation can be induced by synthetic peptides to suppress tumorigenesis” (The EMBO Journal, 2024)

System: HEK293FT cells transfected with TF library
Experiment: Screening of TF condensates based on fluorescent puncta
Type: cell-based
Details: Figure 1B numerical data; TF library screen, one value per transcriptional factor
Procedure, shortened: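 HEK293FT, PEI transfection of TF library, 60 h; ±glucose 12 h; 4% PFA fix, 0.05% Triton X-100 permeabilization, 5% BSA block; anti-Flag/anti-GAL4 overnight at 4 °C, Alexa 488 secondary 1 h; high-content imaging, 50 fields/well.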

Molecule	Z score of condensed fraction
SPZ1 (protein, UniProt Q9BXG8 1-430, looked up) Spermatogenic leucine zipper …: MASSAKSAEMPTISKTVNPTPDPHQEYLDPRITIALFEIGSHSPSSWGSLPFLKNSSHQVTEQQTAQKFNNLLKEIKDILKNMAGFEEKITEAKELFEETNITEDVSAHKENIRGLDKINEMLSTNLPVSLAPEKEDNEKKQEMILETNITEDVSAHKENIRGLDKINEMLSTNLPVSLAPEKEDNEKKQQMIMENQNSENTAQVFARDLVNRLEEKKVLNETQQSQEKAKNRLNVQEETMKIRNNMEQLLQEAEHWSKQHTELSKLIKSYQKSQKDISETLGNNGVGFQTQPNNEVSAKHELEEQVKKLSHDTYSLQLMAALLENECQILQQRVEILKELHHQKQGTLQEKPIQINYKQDKKNQKPSEAKKVEMYKQNKQAMKGTFWKKDRSCRSLDVCLNKKACNTQFNIHVARKALRGKMRSASSLR	0.06851
BCL6B (protein, UniProt Q8N143 1-479, looked up) B-cell CLL/lymphoma 6 member …: MGSPAAPEGALGYVREFTRHSSDVLGNLNELRLRGILTDVTLLVGGQPLRAHKAVLIACSGFFYSIFRGRAGVGVDVLSLPGGPEARGFAPLLDFMYTSRLRLSPATAPAVLAAATYLQMEHVVQACHRFIQASYEPLGISLRPLEAEPPTPPTAPPPGSPRRSEGHPDPPTESRSCSQGPPSPASPDPKACNWKKYKYIVLNSQASQAGSLVGERSSGQPCPQARLPSGDEASSSSSSSSSSSEEGPIPGPQSRLSPTAATVQFKCGAPASTPYLLTSQAQDTSGSPSERARPLPGSEFFSCQNCEAVAGCSSGLDSLVPGDEDKPYKCQLCRSSFRYKGNLASHRTVHTGEKPYHCSICGARFNRPANLKTHSRIHSGEKPYKCETCGSRFVQVAHLRAHVLIHTGEKPYPCPTCGTRFRHLQTLKSHVRIHTGEKPYHCDPCGLHFRHKSQLRLHLRQKHGAATNTKVHYHILGGP	-0.2442
SOX10 (protein, UniProt P56693 1-466, looked up) Transcription factor SOX-10: MAEEQDLSEVELSPVGSEEPRCLSPGSAPSLGPDGGGGGSGLRASPGPGELGKVKKEQQDGEADDDKFPVCIREAVSQVLSGYDWTLVPMPVRVNGASKSKPHVKRPMNAFMVWAQAARRKLADQYPHLHNAELSKTLGKLWRLLNESDKRPFIEEAERLRMQHKKDHPDYKYQPRRRKNGKAAQGEAECPGGEAEQGGTAAIQAHYKSAHLDHRHPGEGSPMSDGNPEHPSGQSHGPPTPPTTPKTELQSGKADPKRDGRSMGEGGKPHIDFGNVDIGEISHEVMSNMETFDVAELDQYLPPNGHPGHVSSYSAAGYGLGSALAVASGHSAWISKPPGVALPTVSPPGVDAKAQVKTETAGPQGPPHYTDQPSTSQIAYTSLSLPHYGSAFPSISRPQFDYSDHQPSGPYYGHSGQASGLYSAFSYMGPSQRPLYTAISDPSPSGPQSHSPTHWEQPVYTTLSRP	-0.1457
SOX7 (protein, UniProt Q9BT81 1-388, looked up) Transcription factor SOX-7: MASLLGAYPWPEGLECPALDAELSDGQSPPAVPRPPGDKGSESRIRRPMNAFMVWAKDERKRLAVQNPDLHNAELSKMLGKSWKALTLSQKRPYVDEAERLRLQHMQDYPNYKYRPRRKKQAKRLCKRVDPGFLLSSLSRDQNALPEKRSGSRGALGEKEDRGEYSPGTALPSLRGCYHEGPAGGGGGGTPSSVDTYPYGLPTPPEMSPLDVLEPEQTFFSSPCQEEHGHPRRIPHLPGHPYSPEYAPSPLHCSHPLGSLALGQSPGVSMMSPVPGCPPSPAYYSPATYHPLHSNLQAHLGQLSPPPEHPGFDALDQLSQVELLGDMDRNEFDQYLNTPGHPDSATGAMALSGHVPVSQVTPTGPTETSLISVLADATATYYNSYSVS	-0.1184
SND1 (protein, UniProt Q7KZF4 2-910, looked up) Staphylococcal nuclease …: ASSAQSGGSSGGPAVPTVQRGIIKMVLSGCAIIVRGQPRGGPPPERQINLSNIRAGNLARRAAATQPDAKDTPDEPWAFPAREFLRKKLIGKEVCFTIENKTPQGREYGMIYLGKDTNGENIAESLVAEGLATRREGMRANNPEQNRLSECEEQAKAAKKGMWSEGNGSHTIRDLKYTIENPRHFVDSHHQKPVNAIIEHVRDGSVVRALLLPDYYLVTVMLSGIKCPTFRREADGSETPEPFAAEAKFFTESRLLQRDVQIILESCHNQNILGTILHPNGNITELLLKEGFARCVDWSIAVYTRGAEKLRAAERFAKERRLRIWRDYVAPTANLDQKDKQFVAKVMQVLNADAIVVKLNSGDYKTIHLSSIRPPRLEGENTQDKNKKLRPLYDIPYMFEAREFLRKKLIGKKVNVTVDYIRPASPATETVPAFSERTCATVTIGGINIAEALVSKGLATVIRYRQDDDQRSSHYDELLAAEARAIKNGKGLHSKKEVPIHRVADISGDTQKAKQFLPFLQRAGRSEAVVEYVFSGSRLKLYLPKETCLITFLLAGIECPRGARNLPGLVQEGEPFSEEATLFTKELVLQREVEVEVESMDKAGNFIGWLHIDGANLSVLLVEHALSKVHFTAERSSYYKSLLSAEEAAKQKKEKVWAHYEEQPVEEVMPVLEEKERSASYKPVFVTEITDDLHFYVQDVETGTQLEKLMENMRNDIASHPPVEGSYAPRRGEFCIAKFVDGEWYRARVEKVESPAKIHVFYIDYGNREVLPSTRLGTLSPAFSTRVLPAQATEYAFAFIQVPQDDDARTDAVDSVVRDIQNTQCLLNVEHLSAGCPHVTLQFADSKGDVGLGLVKEGLVMVEVRKEKQFQKVITEYLNAQESAKSARLNLWRYGDFRADDADEFGYSR	0.9266
BHLHA9 (protein, UniProt Q7RTU4 1-235, looked up) Class A basic …: MLRGAPGLGLTARKGAEDSAEDLGGPCPEPGGDSGVLGANGASCSRGEAEEPAGRRRARPVRSKARRMAANVRERKRILDYNEAFNALRRALRHDLGGKRLSKIATLRRAIHRIAALSLVLRASPAPRGPCGHLECHGPAARGDTGDTGASPPPPAGPSLARPDAARPSVPSAPRCASCPPHAPLARPSAVAEGPGLAQASGGSWRRCPGASSAGPPPWPRGYLRSAPGMGHPRS	-1.033
SP110 (protein, UniProt Q9HB58 1-689, looked up) Sp110 nuclear body protein: MFTMTRAMEEALFQHFMHQKLGIAYAIHKPFPFFEGLLDNSIITKRMYMESLEACRNLIPVSRVVHNILTQLERTFNLSLLVTLFSQINLREYPNLVTIYRSFKRVGASYEWQSRDTPILLEAPTGLAEGSSLHTPLALPPPQPPQPSCSPCAPRVSEPGTSSQQSDEILSESPSPSDPVLPLPALIQEGRSTSVTNDKLTSKMNAEEDSEEMPSLLTSTVQVASDNLIPQIRDKEDPQEMPHSPLGSMPEIRDNSPEPNDPEEPQEVSSTPSDKKGKKRKRCIWSTPKRRHKKKSLPGGTASSRHGIQKKLKRVDQVPQKKDDSTCNSTVETRAQKARTECARKSRSEEIIDGTSEMNEGKRSQKTPSTPRRVTQGAASPGHGIQEKLQVVDKVTQRKDDSTWNSEVMMRVQKARTKCARKSRLKEKKKEKDICSSSKRRFQKNIHRRGKPKSDTVDFHCSKLPVTCGEAKGILYKKKMKHGSSVKCIRNEDGTWLTPNEFEVEGKGRNAKNWKRNIRCEGMTLGELLKRKNSDECEVCCQGGQLLCCGTCPRVFHEDCHIPPVEAKRMLWSCTFCRMKRSSGSQQCHHVSKTLERQMQPQDQLIRDYGEPFQEAMWLDLVKERLITEMYTVAWFVRDMRLMFRNHKTFYKASDFGQVGLDLEAEFEKDLKDVLGFHEANDGGFWTLP	-0.422
SP100 (protein, UniProt P23497 2-879, looked up) Nuclear autoantigen Sp-100: AGGGGDLSTRRLNECISPVANEMNHLPAHSHDLQRMFTEDQGVDDRLLYDIVFKHFKRNKVEISNAIKKTFPFLEGLRDRDLITNKMFEDSQDSCRNLVPVQRVVYNVLSELEKTFNLPVLEALFSDVNMQEYPDLIHIYKGFENVIHDKLPLQESEEEEREERSGLQLSLEQGTGENSFRSLTWPPSGSPSHAGTTPPENGLSEHPCETEQINAKRKDTTSDKDDSLGSQQTNEQCAQKAEPTESCEQIAVQVNNGDAGREMPCPLPCDEESPEAELHNHGIQINSCSVRLVDIKKEKPFSNSKVECQAQARTHHNQASDIIVISSEDSEGSTDVDEPLEVFISAPRSEPVINNDNPLESNDEKEGQEATCSRPQIVPEPMDFRKLSTFRESFKKRVIGQDHDFSESSEEEAPAEASSGALRSKHGEKAPMTSRSTSTWRIPSRKRRFSSSDFSDLSNGEELQETCSSSLRRGSGSQPQEPENKKCSCVMCFPKGVPRSQEARTESSQASDMMDTMDVENNSTLEKHSGKRRKKRRHRSKVNGLQRGRKKDRPRKHLTLNNKVQKKRWQQRGRKANTRPLKRRRKRGPRIPKDENINFKQSELPVTCGEVKGTLYKERFKQGTSKKCIQSEDKKWFTPREFEIEGDRGASKNWKLSIRCGGYTLKVLMENKFLPEPPSTRKKRILESHNNTLVDPCEEHKKKNPDASVKFSEFLKKCSETWKTIFAKEKGKFEDMAKADKAHYEREMKTYIPPKGEKKKKFKDPNAPKRPPLAFFLFCSEYRPKIKGEHPGLSIDDVVKKLAGMWNNTAAADKQFYEKKAAKLKEKYKKDIAAYRAKGKPNSAKKRVVKAEKSKKKKEEEEDEEDEQEEENEEDDDK	-0.9758
SNW1 (protein, UniProt Q13573 2-536, looked up) SNW domain-containing protein …: ALTSFLPAPTQLSQDQLEAEEKARSQRSRQTSLVSSRREPPPYGYRKGWIPRLLEDFGDGGAFPEIHVAQYPLDMGRKKKMSNALAIQVDSEGKIKYDAIARQGQSKDKVIYSKYTDLVPKEVMNADDPDLQRPDEEAIKEITEKTRVALEKSVSQKVAAAMPVRAADKLAPAQYIRYTPSQQGVAFNSGAKQRVIRMVEMQKDPMEPPRFKINKKIPRGPPSPPAPVMHSPSRKMTVKEQQEWKIPPCISNWKNAKGYTIPLDKRLAADGRGLQTVHINENFAKLAEALYIADRKAREAVEMRAQVERKMAQKEKEKHEEKLREMAQKARERRAGIKTHVEKEDGEARERDEIRHDRRKERQHDRNLSRAAPDKRSKLQRNENRDISEVIALGVPNPRTSNEVQYDQRLFNQSKGMDSGFAGGEDEIYNVYDQAWRGGKDMAQSIYRPSKNLDKDMYGDDLEARIKTNRFVPDKEFSGSDRRQRGREGPVQFEEDPFGLDKFLEEAKQHGGSKRPSDSSRPKEHEHEGKKRRKE	-0.7186
SP6 (protein, UniProt Q3SY56 1-376, looked up) Transcription factor Sp6: MLTAVCGSLGSQHTEAPHASPPRLDLQPLQTYQGHTSPEAGDYPSPLQPGELQSLPLGPEVDFSQGYELPGASSRVTCEDLESDSPLAPGPFSKLLQPDMSHHYESWFRPTHPGAEDGSWWDLHPGTSWMDLPHTQGALTSPGHPGALQAGLGGYVGDHQLCAPPPHPHAHHLLPAAGGQHLLGPPDGAKALEVAAPESQGLDSSLDGAARPKGSRRSVPRSSGQTVCRCPNCLEAERLGAPCGPDGGKKKHLHNCHIPGCGKAYAKTSHLKAHLRWHSGDRPFVCNWLFCGKRFTRSDELQRHLQTHTGTKKFPCAVCSRVFMRSDHLAKHMKTHEGAKEEAAGAASGEGKAGGAVEPPGGKGKREAEGSVAPSN	2.974
